Reference: patent publication CN111620945A (JIANGSU DISEASE CONTROL AND PREVENTION CENTER JIANGSU …, dated 2020)

B1: FC05 (antibody, V domains shown)
VH: VQLLEQSGAEVKKPGASVRVSCKVSGYTLPEVAMHWVRQAPGKGLEWMGGFDPEDGETIYAQKFQGRVTMTEDTSTDTAYMELSSLRSEDTAVYYCATTTPFSSSFWFDPWGQGTLVTVSS
VL: QSVLTQAPSVSGAPGQKVTISCSGSSSNIGNNYVSWYQQLPGTAPKLLIYDNNKRPSGIPDRFSGSKSGTSATLGITGLQTGDEADYYCGTWDSSLSAVVFGGGTKLTVL
B2: FC08 (antibody, V domains shown)
VH: VQLLQQSGAEVKKPGSSVKVSCKASGGTFSSYAISWVRQAPGQGLEWMGGIIPILGIANYAQKFQGRVTITADKSTSTAYMELSSLRSEDTAVYYCVRERGYSGYGAAYYFDYWGQGTLVTVSS
VL: QSVLTQPPSVSGAPGQRVTISCTGSSSNIGAGYDVHWYQQLPGTAPKLLIYGNSNRPSGVPDRFSGSKSGTSASLAITGLQAEDEADYYCQSYDSSLSGSVFGGGTKLTVL
notes: also called FC08抗体
B3: FC11 (antibody, V domains shown)
VH: EVQLLESGGGVVQPGRSLRLSCAASGFTFSYYGMHWVRQAPGTGLEWVAVISYDGSNEYYADSVKGRFTISRDNSKNTLYLQMNSLRAEDTAVYYCAKAMFLGDSSGLTGLDMDVWGQGTTVTVSS
VL: DIELTQSPGTLSLSPGERATLSCRASQSVSSYLAWYQQKPGQAPRLLIYDASNRATGIPARFSGSGSGTDFTLTISSLEPEDFALYYCQQRGNWPPTFGGGTKLEIK

Assays:
[1] = biological target: SARS-CoV-2 Spike蛋白(刺突蛋白) of the isolate BetaCoV/JS03/human/2020, on live virus (SARS-CoV-2, UniProt P0DTC2 14-1273); test: cell-based or functional assay
[2] = biological target: 重组SARS-CoV-2刺突蛋白胞外区 (extra cellular domain of spike protein, S-ECD) (SARS-CoV-2, UniProt P0DTC2 14-1213); test: SPR, Biacore 8K, S-ECD immobilised on a CM5 chip, antibody 125-7.8 nM
[3] = biological target: SARS-CoV-2 Spike蛋白(刺突蛋白) of the isolate BetaCoV/JS03/human/2020, on live virus (SARS-CoV-2, UniProt P0DTC2 14-1273); test: cell-based or functional assay; remark: listed apart in the source
[4] = biological target: 重组SARS-CoV-2刺突蛋白胞外区 (extra cellular domain of spike protein, S-ECD) (SARS-CoV-2, UniProt P0DTC2 14-1213); test: SPR, Biacore 8K, S-ECD immobilised on a CM5 chip, antibody 125-7.8 nM; remark: listed apart in the source

Binder | IC50(ng/ml), 体外中和实验 (live virus, Vero E6, CPE) [1] [ng/mL] | Kd [2] [nM] | IC50(ng/ml), 体外中和实验 (live virus, Vero E6, CPE) [3] [ng/mL] | Kd [4] [nM]
B1 | 142 |  |  | 
B2 |  | 0.8 | 325 | 
B3 | 818 |  |  | 0.5
